Source: paper PMC9832388, “A novel method for real-time analysis of the complement C3b:FH:FI complex reveals dominant negative CFI variants in age-related macular degeneration” (Frontiers in Immunology, 2022)

Molecular target: C3b (UniProt P01024 23-667; P01024 749-1663)
Test: cell-based or functional assay

Sequence of C3b (P01024 23-667, chain 1 of 2): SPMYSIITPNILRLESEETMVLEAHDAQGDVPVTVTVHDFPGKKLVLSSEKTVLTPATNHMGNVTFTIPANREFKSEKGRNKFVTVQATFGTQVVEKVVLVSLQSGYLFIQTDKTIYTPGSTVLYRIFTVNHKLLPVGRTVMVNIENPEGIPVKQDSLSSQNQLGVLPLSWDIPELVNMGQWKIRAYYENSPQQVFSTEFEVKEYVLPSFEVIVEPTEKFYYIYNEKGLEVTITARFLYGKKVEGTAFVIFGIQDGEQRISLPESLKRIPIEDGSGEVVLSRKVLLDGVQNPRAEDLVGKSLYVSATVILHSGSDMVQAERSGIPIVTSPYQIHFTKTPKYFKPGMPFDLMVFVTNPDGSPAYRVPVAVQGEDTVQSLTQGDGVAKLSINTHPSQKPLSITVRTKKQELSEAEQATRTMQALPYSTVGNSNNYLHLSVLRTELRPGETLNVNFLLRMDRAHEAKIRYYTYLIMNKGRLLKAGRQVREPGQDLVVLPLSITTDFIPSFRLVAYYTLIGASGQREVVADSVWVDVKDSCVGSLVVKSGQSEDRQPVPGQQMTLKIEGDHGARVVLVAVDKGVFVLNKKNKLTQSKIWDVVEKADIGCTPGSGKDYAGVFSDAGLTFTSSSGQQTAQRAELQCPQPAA
Sequence of C3b (P01024 749-1663, chain 2 of 2): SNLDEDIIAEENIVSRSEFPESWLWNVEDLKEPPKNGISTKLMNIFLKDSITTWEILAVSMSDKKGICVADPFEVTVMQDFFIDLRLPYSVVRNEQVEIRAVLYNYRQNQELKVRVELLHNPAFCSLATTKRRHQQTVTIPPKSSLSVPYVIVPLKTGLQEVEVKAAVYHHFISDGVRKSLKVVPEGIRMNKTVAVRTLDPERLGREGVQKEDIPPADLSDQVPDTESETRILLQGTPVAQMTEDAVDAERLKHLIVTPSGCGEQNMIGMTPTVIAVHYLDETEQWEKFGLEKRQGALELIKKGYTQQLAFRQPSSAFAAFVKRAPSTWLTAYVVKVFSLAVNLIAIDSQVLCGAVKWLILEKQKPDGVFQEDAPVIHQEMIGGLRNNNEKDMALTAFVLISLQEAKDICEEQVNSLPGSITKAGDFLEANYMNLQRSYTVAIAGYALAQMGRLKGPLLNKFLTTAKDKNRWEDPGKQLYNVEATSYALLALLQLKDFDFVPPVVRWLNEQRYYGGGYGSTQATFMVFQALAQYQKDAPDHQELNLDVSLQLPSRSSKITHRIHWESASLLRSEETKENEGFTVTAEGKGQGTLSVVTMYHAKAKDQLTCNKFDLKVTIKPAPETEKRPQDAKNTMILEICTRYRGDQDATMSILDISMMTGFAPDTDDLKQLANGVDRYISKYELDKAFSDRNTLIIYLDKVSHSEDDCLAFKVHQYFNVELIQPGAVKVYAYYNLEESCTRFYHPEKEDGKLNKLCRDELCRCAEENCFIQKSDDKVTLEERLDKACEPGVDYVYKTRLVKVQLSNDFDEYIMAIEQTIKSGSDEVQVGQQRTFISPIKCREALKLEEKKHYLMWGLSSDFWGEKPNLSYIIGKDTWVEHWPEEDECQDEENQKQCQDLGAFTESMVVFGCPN

- inhibition of the activity of WT FI in a fluid phase CA assay with increasing I340T FI (~25% at equimolar, 30% at 2-fold molar): 30%
B1: I340T FI (enzyme, human)
chain 1: KVTYTSQEDLVEKKCLAKKYTHLSCDKVFCQPWQRCIEGTCVCKLPYQCPKNGTAVCATNRRSFPTYCQQKSLECLHPGTKFLNNGTCTAEGKFSVSLKHGNTDSEGIVEVKLVDQDKTMFICKSSWSMREANVACLDLGFQQGADTQRRFKLSDLSINSTECLHVHCRGLETSLAECTFTKRRTMGYQDFADVVCYTQKADSPMDDFFQCVNGKYISQMKACDGINDCGDQSDELCCKACQGKGFHCKSGVCIPSQYQCNGEVDCITGEDEVGCAGFASVTQEETEILTADMDAERRRIKSLLPKLSCGVKNRMHI
chain 2: TVGGKRAQLGDLPWQVAIKDASGITCGGIYIGGCWILTAAHCLRASKTHRYQIWTTVVDWIHPDLKRIVIEYVDRIIFHENYNAGTYQNDIALIEMKKDGNKKDCELPRSIPACVPWSPYLFQPNDTCIVSGWGREKDNERVFSLQWGEVKLISNCSKFYGNRFYEKEMECAGTYDGSIDACKGDSGGPLVCMDANNVTYVWGVVSWGENCGKPEFPGVYTKVANYFDWISYHVGRPFISQYNV
